Laboratory results reported in the supplement of paper PMC10219994.
± gives the standard deviation of the averaged measurements.

B1: library; a variant is named by its letters at N, in order (parent)
chain: GAGACCGCAACTGAAAAGTTGTGGNNNNNATAGTGAGTCGCTGCCTGCAAAGACACAACT

Variants of: B1
Experiment: ligation selection enrichment (abundance after / before one-round selection) (fold); higher = more template-directed ligation activity
Settings: with T7Psub CACGGAUGCUAAUACGACUCACUAUA; MgCl2 25 mM; 42 °C; 4 h; pH 8.5
Summary of the method: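 In each of two independent experiments, 6 μM RNA substrate was reacted for 4 h at 42 °C with 0.75 μM of a T7-transcribed RNA ligase library randomized at five core positions, in buffer containing 50 mM EPPS pH 8.5 and 25 mM MgCl2. Only reads scoring ≥30 in quality at all randomized positions were counted after MiSeq sequencing. Each enrichment value is the ratio of abundance after ligation to abundance before ligation.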

Row | Variant | ligation selection enrichment
1 | TTTGA | 0.78 ± 0.039
2 | TTTGG | 0.466 ± 0.024
3 | TTTGT | 0.164 ± 0.11
4 | TTTGC | 0.319 ± 0.085
5 | GTGTC | 0.144 ± 0.015
6 | GTGTG | 0.75 ± 0.1
7 | GTGTA | 0.265 ± 0.083
8 | GTGTT | 0.277 ± 0.011
9 | ATCCT | 0.468 ± 0.17
10 | ATCCC | 0.168 ± 0.049
11 | ATCCG | 0.765 ± 0.036
12 | ATCCA | 0.148 ± 0.027
13 | GTCTA | 0.177 ± 0.024
14 | GTCTT | 0.114 ± 0.069
15 | GTCTC | 0.116 ± 0.027
16 | GTCTG | 0.554 ± 0.068
17 | CTGTC | 0.18 ± 0.017
18 | CTGTA | 0.136 ± 0.0097
19 | CTGTG | 0.195 ± 0.072
20 | CTGTT | 0.3 ± 0.027
21 | TTTAA | 0.18 ± 0.0051
22 | TTTAG | 0.504 ± 0.034
23 | TTTAC | 0.218 ± 0.013

Row | Variant | ligation selection enrichment
24 | TTTAT | 1.19 ± 0.53
25 | ATCTA | 0.203 ± 0.01
26 | ATCTG | 0.796 ± 0.041
27 | ATCTC | 0.078 ± 0.025
28 | ATCTT | 0.102 ± 0.083
29 | TTGCT | 0.947 ± 0.32
30 | TTGCG | 0.391 ± 0.012
31 | TTGCA | 0.683 ± 0.015
32 | TTGCC | 0.231 ± 0.025
33 | GTTAA | 0.876 ± 0.12
34 | GTTAC | 0.3144 ± 0.0017
35 | GTTAT | 1.54 ± 0.28
36 | GTTAG | 0.728 ± 0.01
37 | CTTGA | 2.2 ± 0.37
38 | CTTGG | 0.278 ± 0.035
39 | CTTGC | 0.446 ± 0.26
40 | CTTGT | 0.413 ± 0.078
41 | TTGTT | 0.311 ± 0.15
42 | TTGTC | 0.271 ± 0.021
43 | TTGTA | 0.685 ± 0.11
44 | TTGTG | 0.223 ± 0.015
45 | ATTCA | 0.611 ± 0.08
46 | ATTCG | 3.01 ± 0.51

Row | Variant | ligation selection enrichment
47 | ATTCT | 0.471 ± 0.21
48 | ATTCC | 0.246 ± 0.02
49 | TTTTG | 1.05 ± 0.27
50 | TTTTA | 0.205 ± 0.0097
51 | TTTTT | 0.314 ± 0.091
52 | TTTTC | 0.167 ± 0.027
53 | GTGCC | 0.209 ± 0.022
54 | GTGCT | 0.813 ± 0.23
55 | GTGCG | 2.12 ± 0.13
56 | GTGCA | 0.307 ± 0.043
57 | CTACT | 0.785 ± 0.19
58 | CTACG | 0.429 ± 0.14
59 | CTACA | 0.114 ± 0.0039
60 | CTACC | 0.116 ± 0.021
61 | CGTTT | 0.379 ± 0.0055
62 | CGTTC | 0.124 ± 0.0021
63 | CGTTG | 2.11 ± 0.56
64 | CGTTA | 0.263 ± 0.01
65 | GGTGT | 0.181 ± 0.16
66 | ATTGT | 0.543 ± 0.093
67 | ATTGG | 0.805 ± 0.035
68 | ATTGA | 6.7 ± 0.45
69 | ATTGC | 0.765 ± 0.2

Row | Variant | ligation selection enrichment
70 | GTACG | 1.47 ± 0.055
71 | GTACA | 0.288 ± 0.094
72 | GTACC | 0.165 ± 0.011
73 | GTACT | 0.785 ± 0.17
74 | TTCGG | 0.397 ± 0.024
75 | TTCGT | 0.267 ± 0.029
76 | TTCGA | 2.1 ± 0.11
77 | TTCGC | 0.331 ± 0.0077
78 | ATATA | 0.239 ± 0.089
79 | ATATC | 0.177 ± 0.029
80 | ATATT | 0.203 ± 0.037
81 | ATATG | 1.01 ± 0.061
82 | CTCTA | 0.182 ± 0.031
83 | CTCTC | 0.116 ± 0.0082
84 | CTCTT | 0.133 ± 0.075
85 | CTCTG | 0.298 ± 0.058
86 | GTCGT | 0.297 ± 0.13
87 | GTCGC | 0.371 ± 0.033
88 | GTCGA | 2.56 ± 0.37
89 | GTCGG | 0.443 ± 0.054
90 | CGTGT | 0.172 ± 0.066
91 | TTATG | 0.377 ± 0.02
92 | TTATT | 0.206 ± 0.071

Row | Variant | ligation selection enrichment
93 | TTATC | 0.152 ± 0.02
94 | TTATA | 0.465 ± 0.12
95 | GTTCT | 0.587 ± 0.17
96 | GTTCG | 2.43 ± 0.41
97 | GTTCA | 0.545 ± 0.029
98 | GTTCC | 0.33 ± 0.069
99 | GTGAG | 1.24 ± 0.03
100 | GTGAA | 1.7381 ± 0.00037
101 | GTGAC | 4.35 ± 0.17
102 | GTGAT | 89.4 ± 3
103 | CTGGT | 0.18 ± 0.078
104 | CTGGC | 0.135 ± 0.021
105 | CTGGG | 0.152 ± 0.051
106 | CTGGA | 0.282 ± 0.086
107 | ATAAT | 2.48 ± 0.27
108 | ATAAC | 0.204 ± 0.038
109 | ATAAG | 0.373 ± 0.099
110 | ATAAA | 0.228 ± 0.05
111 | TTGAA | 1.56 ± 0.22
112 | TTGAG | 0.82 ± 0.12
113 | TTGAT | 29.9 ± 7.4
114 | TTGAC | 3.32 ± 0.24
115 | ATGCG | 1.74 ± 0.19

Row | Variant | ligation selection enrichment
116 | ATGCT | 0.505 ± 0.074
117 | ATGCA | 0.419 ± 0.021
118 | ATGCC | 0.176 ± 0.0063
119 | CTAAT | 1.29 ± 0.25
120 | CTAAA | 0.114 ± 0.017
121 | CTAAG | 0.314 ± 0.043
122 | CTAAC | 0.146 ± 0.054
123 | GTAAA | 0.321 ± 0.067
124 | GTAAT | 4.35 ± 0.56
125 | GTAAG | 0.509 ± 0.011
126 | GTAAC | 0.305 ± 0.011
127 | ATCAG | 0.722 ± 0.0083
128 | ATCAT | 0.391 ± 0.082
129 | ATCAA | 0.518 ± 0.024
130 | ATCAC | 0.175 ± 0.028
131 | ATTAC | 0.217 ± 0.042
132 | ATTAG | 1.02 ± 0.19
133 | ATTAT | 1.85 ± 0.22
134 | ATTAA | 0.524 ± 0.12
135 | CTCCT | 0.503 ± 0.14
136 | CTCCA | 0.1489 ± 0.00039
137 | CTCCC | 0.0937 ± 0.042
